Biological target: the molecule itself
Test: crystal structure

B1: truncated mouse Bcs1 lacking the TM and Bcs1-specific domains (ΔNmBcs1, residues 151-418) (domain or fragment)
chain: not shown
In the case of B1, the “stoichiometry N” value is reported as 7.
